This is an account of results in patent US20080226722A1, “Gel Composition Comprising Charged Polymers” (priority 2004, published 2008).

The nature of data set [1]: Protein release from gels comprising anionically and cationically charged microparticles (release buffer, 37° C., BCA Protein Assay). It is filed as physicochemical. The note with it: for time to reach a release of 50% of protein: HEPES pH 7 isotonised with NaCl, 37° C. As to the method:
To each of the gels prepared according to example 5, 1.5 mL release buffer (HEPES, pH 7, 100 mM, isotonised with NaCl) was added. Subsequently, the cups were incubated at 37° C. Samples of 1.0 mL were taken at various intervals and replaced by 1.0 mL fresh buffer. The protein concentration in the samples was measured […] using the BCA Protein Assay.
Gels loaded with IgG were prepared in analogy to example 5 and tested in analogy to example 6, except that IgG was used as a model protein instead of lysozyme and BSA.

Data set [2] can be described thus: Incorporation of protein into charged microparticles. The note with it: neutral or physiological pH. It is filed as physicochemical.

Regarding lysozyme, the “time to reach a release of 50% of protein” value in data set [1] (12.5%-gel (solid content about 12.5%)) was “about 20 h”. The “time to reach a release of 50% of protein” value in data set [1] (25.5%-gel (so in the source)) is on record as “about 85 h”. In data set [2], the “incorporation into negatively charged microparticles” value was “easily incorporated” and the “incorporation into positively charged microparticles” value is recorded as “not very efficiently incorporated”.

In the case of IgG, in data set [1] (after about 60 days, gels prepared in analogy to example 5), the protein released entry was “approx. 50%”. Further, in data set [1] (gels of oppositely charged microparticles), the “release rate compared with the other model proteins” value was “substantially slower”.
